Experimental data published in patent US20030003461, “Truncation selex method” (Gilead Sciences, Inc., published 2003).

Legend:
[1] = biological target: T1, MS2 coat protein (MS2 CP) (bacteriophage MS2, UniProt P03612 P03612:2-130, V75E;A81G); assay: filter; only marginally worse than full isolate; conditions: chain copies: 2 (dimer, stated); hairpin
[2] = biological target: T1, MS2 coat protein (MS2 CP); assay: filter; tightest of the isolates; 100 mM HEPES-KOH pH 7.5, 80 mM KCl, 10 mM MgCl2, 24-25 C; conditions: chain copies: 2 (dimer, stated); hairpin
[3] = biological target: T1, MS2 coat protein (MS2 CP); assay: filter; binds better than natural MS2 site; conditions: chain copies: 2 (dimer, stated); hairpin
[4] = biological target: T2, VEGF (Homo sapiens, UniProt P15692-4 P15692-4:27-191); assay: filter; phenotype 2: somewhat affected; conditions: tags: recombinant human, R&D Systems; chain copies: 2
T2 sequence (P15692 other isoform, or with tags, fused parts or gaps): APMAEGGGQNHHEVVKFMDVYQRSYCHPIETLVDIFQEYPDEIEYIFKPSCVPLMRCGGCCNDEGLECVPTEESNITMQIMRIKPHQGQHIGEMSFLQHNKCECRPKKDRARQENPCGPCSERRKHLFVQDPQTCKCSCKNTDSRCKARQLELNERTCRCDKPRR

[5] = biological target: T2, VEGF; assay: filter; phenotype 3: gains significant affinity when truncated; conditions: tags: recombinant human, R&D Systems; chain copies: 2
[6] = biological target: VEGF (VEGF165?) (Homo sapiens, UniProt P15692-4 P15692-4:27-191); assay: filter; phenotype 5: non-binding with or without 3' fixed sequence; conditions: tags: R&D Systems; chain copies: 2; label: 32P body
VEGF (VEGF165?), sequence (P15692 other isoform, or with tags, fused parts or gaps): as above

[7] = biological target: T2, VEGF; assay: filter; phenotype 4: unaffected; conditions: tags: recombinant human, R&D Systems; chain copies: 2
[8] = biological target: TGFβ1 (Homo sapiens, UniProt P01137 P01137:279-390); assay: cell_activity; full inhibition of TGFβ1 in mink lung epithelial cell proliferation assay; conditions: tags: recombinant human, R&D Systems; chain copies: 2
TGFβ1, sequence (P01137 279-390, one chain of several): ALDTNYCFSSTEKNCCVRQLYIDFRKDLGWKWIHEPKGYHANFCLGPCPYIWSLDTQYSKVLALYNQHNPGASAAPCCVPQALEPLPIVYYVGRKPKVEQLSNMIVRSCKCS
Procedure: RNA was synthesized by phosphoramidite chemistry. Indicator cells (mink lung epithelial cells) were incubated with TGFβ1 and dilutions of RNA as described. The extent of cell proliferation was measured by ³H-thymidine incorporation and the data were analyzed as described. The points represent an average of n=2 and error bars are standard errors. The sequence of CD70syn and 30N7-9syn are 5′[…] (SEQ ID NO:323) and 5′[…] (SEQ ID NO:324), respectively.
The bioactivity of TGFβ1 nucleic acid ligands was measured with mink lung epithelial cells as described in U.S. patent application Ser. No. 09/046,247, filed Mar. 23, 1998. Briefly, proliferation of these cells is inhibited by TGFβ1. Human TGFβ1 was titrated on the cells and ³H-thymidine incorporation was measured. The point at which ³H-thymidine incorporation by the cells was inhibited by 90-100% was determined (typically 1-4 pM). This inhibitory amount of TGFβ1 along with varying amounts of nucleic acid ligand (typically 0.3 or 1 nM to 1 or 3 μM, in 3 fold increments) was used. Cells were plated at 1×10⁵/ml in 96-well plates in 100 μl MEM, 10 mM HEPES pH 7.5, 0.2% FBS. […] After incubation, the cells were lysed with 1% Triton X-100 and harvested onto GF/B filter plates by the Packard 96 well plate harvester, and ³H-thymidine incorporation in cellular DNA was quantitated by scintillation counting in microscint at the Packard Top-Count. […]

[9] = biological target: T2, VEGF; assay: filter; phenotype 4: unaffected (Table 10 clone 34,36a: phenotype 1); conditions: tags: recombinant human, R&D Systems; chain copies: 2

B1: rffG minus fixed sequences (ssRNA)
RNA: GGCACGCGUAUUCACUGAGCAUCAGCCAGACUGUGU
binding result [1]: binds

B2: rffG isolate 1 (ssRNA)
RNA: GGGAAAGCCCACGCCGGCACGCGUAUUCACUGAGCAUCAGCCAGACUGUGUACCGAACUGCCGCACC
binding result [2]: binds

B3: isolate 7 (ssRNA)
RNA: GGGAAAGCCCACGCCAGUAAUUACGCCAUGAACACAGGCAUAAAGAAGUACAUAUGGUACCGAACUGCCGCACC
binding result [3]: binds

B4: VEGF hyb 24 (ssRNA)
RNA: GGGAGGACGAUGCGGAAGGCGACUUGUAUGUGAUUCAGUAUUGGUCAGACGACUCGCCCGA
modifications: 2'-F pyrimidines
binding result [4]: binds

B5: VEGF hyb 4a (ssRNA)
RNA: GGGAGGACGAUGCGGAAACGGAACUUCUUGGAUACAUCUGCUCGUCAGACGACUCGCCCGA
modifications: 2'-F pyrimidines
binding result [5]: binds

B6: T1-2 (ssRNA)
RNA: GGGAGACCACCAGACGACUCGCCCGAACGCUUAUCCUCUGGUCAGACGACUCGCCCGA
modifications: 2'-F pyrimidines
binding result [6]: no binding

B7: mreD isolate 5 (ssRNA)
RNA: GGGAAAGCCCACGCCUGAUUUGCAGCAACAGCGCAAUGAGGAAAGAGAGCCAGAUUACCCACCGAACUGCCGCACC
binding result [3]: binds

B8: VEGF hyb 13b,21a (ssRNA)
RNA: GGGAGGACGAUGCGGUGUUGAUCGAGAUUUAAUCUAUUUCCACGUCAGACGACUCGCCCGA
modifications: 2'-F pyrimidines
binding result [5]: binds

B9: T1-13 (ssRNA)
RNA: GGGAGCAGACGACUCGCCCGACAGACCACUCGCCCGACAGACGACUCGCCCGA
modifications: 2'-F pyrimidines
binding result [6]: no binding

B10: T2-18 (ssRNA)
RNA: GGGAGUGGAAAUCAGUGAAUGCUUAUAGUUUCUCGCGUCACACAGACGACUCGCCCGA
modifications: 2'-F pyrimidines
binding result [7]: binds

B11: VEGF hyb 15b,19 (ssRNA)
RNA: GGGAGGACGAUGCGGACAUGUAGGAAGAAUUGGAAGAUGCCGCGUCAGACGACUCGCCCGA
modifications: 2'-F pyrimidines
binding result [4]: binds

B12: T2-7 (ssRNA)
RNA: GGGAGGAAACGGAAGAAUUGGAAAACACCCGUCCAGACGACUCGCCCGA
modifications: 2'-F pyrimidines
binding result [4]: binds

B13: T1-3 (ssRNA)
RNA: GGGAGCAGACGACUCGCCCGAGGAGGAGGGGGGCAGACGACUCGCCCGA
modifications: 2'-F pyrimidines
binding result [6]: no binding

B14: VEGF hyb 2a,23 (VT30.3) (ssRNA)
RNA: GGGAGGACGAUGCGGAGAAUCAGUGAAUGCUUAUAAAUCUCGUGUCAGACGACUCGCCCGA
modifications: 2'-F pyrimidines
binding result [7]: binds

B15: VT30.3 (ssRNA)
RNA: GGGAGGACGAUGCGGAGAAUCAGUGAAUGCUUAUAAAUCUCGUGUCAGACGACUCGCCCGA
modifications: 2'-F pyrimidines
binding result [4]: binds

B16: pheT isolate 2 (ssRNA)
RNA: GGGAAAGCCCACGCCCUUCGCUUCAGUACCGUCGAGCAGCACCAGCGUUUCGCCACCGAACUGCCGCACC
binding result [3]: binds

B17: T1-15 (ssRNA)
RNA: GGGAGGGGGGGGGAGUGAAUGCUUAUUAGAUCUGCCGUCACAGACGACUCGCCCGA
modifications: 2'-F pyrimidines
binding result [6]: no binding

B18: VEGF hyb 3a (VT30.1) (ssRNA)
RNA: GGGAGGACGAUGCGGAACUAGUGAAUGCUUAUACGACCGUGUUGUCAGACGACUCGCCCGA
modifications: 2'-F pyrimidines
binding result [4]: binds

B19: T1-16 (ssRNA)
RNA: GGGAGGUCUCCAGACGACUCGCCCGA
modifications: 2'-F pyrimidines
binding result [6]: no binding

B20: VEGF hyb 4b (ssRNA)
RNA: GGGAGGACGAUGCGGAGACUUUGGAAGAAUUGAAUUUGUCCGUGUCAGACGACUCGCCCGA
modifications: 2'-F pyrimidines
binding result [4]: binds

B21: T2-23 (ssRNA)
RNA: GGGAGGGACUGAAUGAAUGUUGACGGUUACGCUUUCCCCACAGACGACUCGCCCGA
modifications: 2'-F pyrimidines
binding result [7]: binds

B22: ygiI isolate 4 (ssRNA)
RNA: GGGAAAGCCCACGCCUAGGAGAGCGUUAACAACAGCAUCAGCGUUGAAGUGACGGAGGUACCGAACUGCCGCACC
binding result [3]: binds

B23: VEGF hyb 1 (ssRNA)
RNA: GGGAGGACGAUGCGGAGCUAGGUGAAUGCCGAUAUUCUCUUCCGUCAGACGACUCGCCCGA
modifications: 2'-F pyrimidines
binding result [7]: binds

B24: VEGF hyb 21b (ssRNA)
RNA: GGGAGGACGAUGCGGUACUAGGUGAAUGCCGAUAAUCUUAUCCGUCAGACGACUCGCCCGA
modifications: 2'-F pyrimidines
binding result [5]: binds

B25: VT30.9 (ssRNA)
RNA: GGGAGGACGAUGCGGUCAACCGGUUGAAUAUUUGGUCGCUGACCUCAGACGACUCGCCCGA
modifications: 2'-F pyrimidines
binding result [7]: binds

B26: T2-11 (ssRNA)
RNA: GGGAGGGACACUGGUUCCGAAGUAUUGUCUUUGUCCUCACAGCAGACGACUCGCCCGA
modifications: 2'-F pyrimidines
binding result [4]: binds

B27: T2-20 (ssRNA)
RNA: GGGAGGGGAGGAAACGGAAGAAUUGGAAAACACCCGUCAGCACAGACGACUCGCCCGA
modifications: 2'-F pyrimidines
binding result [4]: binds

B28: T1-5 (ssRNA)
RNA: GGGAGGGUGAAUGCCAACGAUUUUAUCGCCUAUCGUCACAGACGACUCGCCCGA
modifications: 2'-F pyrimidines
binding result [6]: no binding

B29: CD70syn (ssRNA)
RNA: GGGUGCCUUUUGCCUAGGUUGUGAUUUGUAACCUUCUGCCCA
modifications: 2'-F pyrimidines (inferred)
Ki [8]: ~74.6 nM

B30: VEGF hyb 6 (ssRNA)
RNA: GGGAGGACGAUGCGGAUUUGGAUGCAUGUCAAGGCGUUUUGCCCUCAGACGACUCGCCCGA
modifications: 2'-F pyrimidines
binding result [7]: binds

B31: o356 isolate 3 (ssRNA)
RNA: GGGAAAGCCCACGCCAAUGUUCCACCAGCAGGGGAAAUGAUGUUGUUCUGGCUACCGAACUGCCGCACC
binding result [3]: binds

B32: VEGF hyb 10,16b (ssRNA)
RNA: GGGAGGACGAUGCGGUGAAACGGAAGAAUUGGAAACAUUGCUCGUCAGACGACUCGCCCGA
modifications: 2'-F pyrimidines
binding result [9]: binds

B33: T1-1 (ssRNA)
RNA: GGGAGCGGACGACCUGGUGAAUGCCAAUAUACUUUUCGCGUCACAGACGACUCGCCCGA
modifications: 2'-F pyrimidines
binding result [6]: no binding

B34: T1-4 (ssRNA)
RNA: GGGAGGCAGACGACUCGCCCGAGGAUACACAUCGUGUGGUCAGACGACUCGCCCGA
modifications: 2'-F pyrimidines
binding result [6]: no binding

B35: T2-17 (ssRNA)
RNA: GGGAGAGGAGAAUCAGUGAAUGCUUAUAAAUCUCGUGUCACACAGACGACUCGCCCGA
modifications: 2'-F pyrimidines
binding result [4]: binds
